Reference: US20100150834A1 (BURNHAM INSTITUTE, published 2010)
No end group written: not given here.

T1: EphB4 (receptor of Table 1) (Mus musculus (Mouse), UniProt P54761 16-539)
T1 sequence: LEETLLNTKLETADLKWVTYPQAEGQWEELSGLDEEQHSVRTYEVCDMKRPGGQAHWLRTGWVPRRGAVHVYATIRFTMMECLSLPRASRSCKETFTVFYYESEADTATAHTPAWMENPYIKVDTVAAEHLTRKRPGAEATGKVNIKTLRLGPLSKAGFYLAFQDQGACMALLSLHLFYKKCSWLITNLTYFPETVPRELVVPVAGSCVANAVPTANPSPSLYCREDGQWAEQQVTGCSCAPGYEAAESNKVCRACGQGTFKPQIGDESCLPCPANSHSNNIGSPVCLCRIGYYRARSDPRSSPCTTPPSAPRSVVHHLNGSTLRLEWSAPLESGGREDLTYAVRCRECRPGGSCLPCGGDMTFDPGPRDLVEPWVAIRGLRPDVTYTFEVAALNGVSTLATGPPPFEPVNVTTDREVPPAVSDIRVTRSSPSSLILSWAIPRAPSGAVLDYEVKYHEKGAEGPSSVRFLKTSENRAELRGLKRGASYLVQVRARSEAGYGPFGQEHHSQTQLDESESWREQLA

T2: murine EphB4 ectodomain (murine, UniProt P54761 16-539)
T2 construct: extracellular domain; Coated on wells; also called immobilized EphB4 receptor ectodomain
T2 sequence (looked up): T1 sequence

T3: murine EphB4-Alkaline Phosphatase (murine, UniProt P54761 16-539)
T3 construct: also called EphB4-AP; EphB4 AP; not shown: alkaline phosphatase
T3 sequence (looked up): T1 sequence

B1: SNEWIQPRLPQH peptide (SEQ ID NO:18) (peptide)
peptide: SNEWIQPRLPQH
notes: Panned on EphB2; Footnote e: biotinylated and non-biotinylated peptides gave the same IC50
B2: EWLSPNLAPSVR peptide (SEQ ID NO:1) (peptide)
peptide: EWLSPNLAPSVR
notes: Panned on EphB1; Footnote e: biotinylated and non-biotinylated peptides gave the same IC50
B3: biotinylated TNYLFSPNGPIA peptide (SEQ ID NO:24) (peptide)
peptide: TNYLFSPNGPIA
modifications: also: biotin, position not given here
notes: Footnote g: the ~50 µM value was obtained with the biotinylated peptide
B4: ephrin-B2 Fc (Example 7) (Fc fusion, not shown: a dimerising Fc or GST; small tags and cut ends)
chain: RSIVLEPIYWNSSNSKFLPGQGLVLYPQIGDKLDIICPKVDSKTVGQYEYYKVYMVDKDQADRCTIKKENTPLLNCARPDQDVKFTIKFQEFSPNLWGLEFQKNKDYYIISTSNGSLEGLDNQEGGVCQTRAMKILMKVGQDASSAGSARNHGPTRRPELEAGTNGRSSTTSPFVKPNPGSSTDGNSAGHSGNNLLGSEVALFA
notes: also called ephrin B2 Fc protein; ephrin B2 Fc fusion protein

Key:
[1] = molecular target: EphB2 (receptor of Table 1); experiment: inhibition of ephrin-B2 AP binding to EphB2 (panning receptor)
[2] = molecular target: EphB2 (receptor of Table 1); experiment: EphB receptor specificity panel (% binding)
[3] = molecular target: EphB1 (receptor of Table 1); experiment: EphB receptor specificity panel (% binding)
[4] = molecular target: T1, EphB4 (receptor of Table 1); experiment: EphB receptor specificity panel (% binding)
[5] = molecular target: EphB3 (receptor of Table 1); experiment: EphB receptor specificity panel (% binding)
[6] = molecular target: EphB6 (receptor of Table 1); experiment: EphB receptor specificity panel (% binding)
[7] = molecular target: EphB2 (receptor of Table 1); experiment: inhibition of ephrin-B2 AP binding to EphB2 (panning receptor); biotinylated and non-biotinylated peptide gave the same result
[8] = molecular target: EphB1 (receptor of Table 1); experiment: inhibition of ephrin-B2 AP binding to EphB1 (panning receptor); biotinylated and non-biotinylated peptide gave the same result
Target sequence in this assay (Q8CBF3 18-540): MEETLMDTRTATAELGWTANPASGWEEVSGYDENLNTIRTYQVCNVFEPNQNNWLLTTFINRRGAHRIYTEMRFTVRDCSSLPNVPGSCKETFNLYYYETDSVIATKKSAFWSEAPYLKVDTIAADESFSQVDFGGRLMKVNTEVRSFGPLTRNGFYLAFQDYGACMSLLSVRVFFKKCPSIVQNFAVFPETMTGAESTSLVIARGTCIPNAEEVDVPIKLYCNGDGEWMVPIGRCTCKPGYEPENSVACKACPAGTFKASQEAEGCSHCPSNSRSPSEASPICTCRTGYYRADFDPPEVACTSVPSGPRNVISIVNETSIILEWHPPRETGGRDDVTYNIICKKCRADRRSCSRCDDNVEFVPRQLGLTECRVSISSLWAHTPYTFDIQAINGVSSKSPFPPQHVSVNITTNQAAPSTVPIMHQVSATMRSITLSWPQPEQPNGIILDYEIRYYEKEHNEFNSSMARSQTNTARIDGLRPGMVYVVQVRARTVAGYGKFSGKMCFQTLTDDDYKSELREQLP

[9] = molecular target: T1, EphB4 (receptor of Table 1); experiment: inhibition of ephrin-B2 AP binding to EphB4 (panning receptor); limited by solubility
[10] = molecular target: T2, murine EphB4 ectodomain; experiment: inhibition of murine ephrin-B2 AP binding to immobilised murine EphB4 ectodomain
[11] = molecular target: T3, murine EphB4-Alkaline Phosphatase; experiment: competition ELISA: murine EphB4-AP binding to immobilised murine ephrin-B2-Fc
Method: Reati-bind Protein A coated strip plates were washed three times with wash buffer TBST/Ca. […] The plates were washed four times with TBST/Ca. […] Plates were incubates for 3 hours at ambient temperature, then washed four times with TBST/Ca. Substrate, 1 mg/ml PNPP in SEAP buffer, was added in the amount of 100 μl/well. (2×SEAP buffer (pH=9.8) was prepared by: adding 2.1 ml diethanolamine and 10 μl 1M MgCl₂ to 10 ml (total) water; adjusting pH to 9.8; wrapping in foil and storing at ambient temperature; and diluting with water to 1× on day of use).

[12] = molecular target: T1, EphB4 (receptor of Table 1); experiment: inhibition of ephrin-B2 AP binding to EphB4 (panning receptor); biotinylated peptide
[13] = molecular target: T3, murine EphB4-Alkaline Phosphatase; experiment: ELISA binding curve: ephrin-B2 Fc immobilised, increasing volumes of murine EphB4 AP, OD405; one experiment
[14] = molecular target: T1, EphB4 (receptor of Table 1); experiment: inhibition of ephrin-B2 AP binding to EphB4 (panning receptor); non-biotinylated peptide
[15] = molecular target: EphB1 (receptor of Table 1); experiment: inhibition of ephrin-B2 AP binding to EphB1 (panning receptor)
Target sequence in this assay (Q8CBF3 18-540): as above

Binder	% Binding [2]	% Binding [3]	% Binding [4]	% Binding [5]	% Binding [6]	further results
SHWPISPYSLLS (Panned on EphB2) [SHWPISPYSLLS peptide (SEQ ID NO:14)]	100%	39%	4%	9%	8%	IC50 [1]: > 100 µM
B1	–	–	–	–	–	IC50 [7]: ~15 µM
B2	2%	100%	1%	1%	0%	IC50 [8]: ~10 µM
TYFDFQAWSIRA (Panned on EphB4) [TYFDFQAWSIRA peptide (SEQ ID NO:22)]	21%	10%	100%	18%	30%	IC50 [9]: > 50 µM
TNYLFSPNGPIARAW (Synthetic, not biotinylated) [TNYL-RAW peptide TNYLFSPNGPIARAW (SEQ ID NO:39)]	–	–	–	–	–	IC50 [10]: ~0.04 µM; IC50 [11]: 0.016 µM
B3	–	–	–	–	–	IC50 [12]: ~50 µM
B4	–	–	–	–	–	Kd [13]: 0.0006 µM
TNYLFSPNGPIA (Panned on EphB4; non-biotinylated form) [TNYLFSPNGPIA peptide (SEQ ID NO:24)]	3%	5%	100%	3%	7%	IC50 [14]: 150 µM
AHTFPYPHPKPH (Panned on EphB1) [AHTFPYPHPKPH peptide (SEQ ID NO:3)]	4%	100%	1%	8%	0%	IC50 [15]: ~150 µM
